B1: murine mAb 336D8G9 (antibody, V domains shown)
VH: EVQLQQSGAELVRPGASVKLSCPASGFTIKDYYIHWVKQRPEQGLEWIGRIDPEDGDTEYAPKFQGKATMTADTSSNTAYLHLSSLTSEDTAVYYCTSNWYSNSYWGQGTTLTVSS
VL: DVVMTQTPLSLPVSLGDQASISCRSSQSLVHSNGNTYLHWYLQKPGQSPKVLIYKVSNRFSGVPDRFSGSGSGTDFTLKISRVEAEDLGVYFCSQSTHVPYTFGGGTKLEIK
B2: murine mAb 312A10E5 (antibody, V domains shown)
VH: QIQLVQSGPDLKKPGETVKISCKASGYTFTNYGMSWVKQAPGKGLKWMGWINTYSGESTYADDFKGRFAFSLETSASTAYLQINNLKNEDTATYFCARSLNRDTWFTYWGQGTLVTVSA
VL: QAVVTQESALSTSPGETVTLTCRSITGAVTTSNYANWVQEKPDHLFTGLIGGTNNRAPGVPARFSGSLIGDKAALTITGAQTEDEAIYFCALWYSNHWVFGGGTKLTVL

Target: T1, human endothelin A receptor (ETAR), tagged, stably expressed on recombinant CHO cells (human, UniProt P25101 21-427)
T1 sequence: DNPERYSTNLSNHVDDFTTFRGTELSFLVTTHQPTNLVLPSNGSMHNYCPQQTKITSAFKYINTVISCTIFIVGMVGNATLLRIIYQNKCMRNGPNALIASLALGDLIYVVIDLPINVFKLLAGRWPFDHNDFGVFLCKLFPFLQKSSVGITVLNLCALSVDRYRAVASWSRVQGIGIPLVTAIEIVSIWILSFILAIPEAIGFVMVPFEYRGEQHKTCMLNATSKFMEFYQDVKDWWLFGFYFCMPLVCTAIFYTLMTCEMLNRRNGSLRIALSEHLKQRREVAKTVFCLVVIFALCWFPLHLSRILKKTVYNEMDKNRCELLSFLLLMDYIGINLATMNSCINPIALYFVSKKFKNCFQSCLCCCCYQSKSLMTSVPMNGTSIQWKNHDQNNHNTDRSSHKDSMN
Experiment: cell-based or functional assay

| Binder | HuET AR Binding IC50 (nM); IP1 assay (IP-one-Gq kit, HTRF 665/620) with 25.0 nM ET-1 |
| --- | --- |
| B1 | 0.0607 nM |
| B2 | 0.0891 nM |

Reference: patent US20230212300A1 (REMD BIOTHERAPEUTICS, published 2023)
